From paper PMC5906480, “Tau Antibody Structure Reveals a Molecular Switch Defining a Pathological Conformation of the Tau Protein” (Scientific Reports, 2018)

Columns and labels:
[1] = target: FITC-conjugated tau peptide pS396/pS404; experiment: Fluorescence polarization direct binding, pS396/pS404 peptide; details: restated in Discussion; fluorescence polarization, Fab C5.2
Experimental: (§1) FITC-labeled peptides used in fluorescence polarization experiments were synthesized by Biomatik (Cambridge, ON, Canada). Fab C5.2 affinity was determined using a fluorescence polarization-based direct binding assay with fluorescein isothiocyanate (FITC)-conjugated peptides (Table 1). The FITC-peptide concentration was kept constant at 300 nM while Fab C5.2 was serially diluted from 675 nM to 0.08 nM. Data was collected at 25 °C using excitation and emission wavelengths of 485 nm and 535 nm, respectively. Each experiment was done in a single 96-well plate and calculated in triplicate (buffer: 50 mM Tris, 100 mM NaCl, 0.1% pluronic F-127). The experiments were performed with a DTX 880 Multimode Detector (Beckman Coulter, Jersey City, NJ). Fluorescence data was reduced using multimode detection software and KD values were calculated in GraphPad Prism 7.0 using a nonlinear regression model.
(§2) To accurately measure the C5.2 binding affinity, we performed fluorescence polarization experiments to determine dissociation constants (KD), using the Fab C5.2 and four differentially phosphorylated FITC-conjugated peptides (Table 1). The peptide concentration was kept constant while that of Fab C5.2 was serially diluted from 675 nM to 0.08 nM (Fig. 1d). […] In comparison with a […] IgG molecule, each Fab fragment contains a single binding site so the KD was calculated using a nonlinear model.

[2] = system: FITC-conjugated tau peptide pS396; experiment: Fluorescence polarization direct binding, pS396 peptide
Experimental: as §1, §2

[3] = system: tau in Alzheimer's disease brain fractions; experiment: Western and dot blot, Alzheimer's disease brain; format: binding, human
Experimental: Mice were euthanized by cervical dislocation. Brains were quickly removed, weighed and divided sagittally down the midline to yield two hemispheres. One hemisphere was parted from the cerebellum and hindbrain, the forebrain containing cerebral cortex and hippocampus was snap-frozen on dry ice and stored at −80 °C until use for biochemical analysis. Frontal cortices from 4 AD donors (2 males and 2 females) and 4 non-demented healthy controls (HC, 2 males and 2 females) were obtained from Cambridge Bioscience (Cambridge, UK). The brain tissue samples were fresh-frozen and stored at −80 °C until used for biochemical analysis. All donors were of Caucasian race. Age of AD donors: 76–91 years. Age of the HC donors: 57–80 years. Post-mortem delays: 3–8 hours.
Brain tissue extraction was performed as described previously. Tissues were homogenized in 10 volumes of Tris-buffered saline containing protease and phosphatase inhibitors as follows: 50 mM Tris/HCl (pH 7.4); 274 mM NaCl; 5 mM KCl; 1% protease inhibitor mixture (Roche); 1% phosphatase inhibitor cocktail I & II (Sigma); and 1 mM phenylmethylsulfonyl fluoride (PMSF; Sigma). The homogenates were centrifuged at 27,000 × g for 20 min at 4 °C to obtain supernatant (S1) and pellet fractions. Pellets were re-homogenized in 5 volumes of high salt/sucrose buffer (0.8 M NaCl, 10% sucrose, 10 mM Tris/HCl, [pH 7.4], 1 mM EGTA, 1 mM PMSF) and centrifuged as above. The supernatants were collected and incubated with sarkosyl (1% final concentration; Sigma) for one hour at 37 °C, followed by centrifugation at 150,000 × g for one hour at 4 °C to obtain sarkosyl-insoluble pellets, referred to as P3. The P3 pellet was re-suspended in TE buffer (10 mM Tris/HCl [pH 8.0], 1 mM EDTA) to a volume equivalent to half of the original volume used for the brain homogenates. S1 and P3 fractions isolated from the individual 4 AD and 4 HC brains were pooled and used as AD pool and HC pool for western and dot blot analysis.
Samples were boiled in 1 × LDS loading buffer and 100 mM DTT. […] Tau and pTau levels were assessed in the samples using 1 μg/mL C5.2 overnight at 4 °C. A secondary fluorophore conjugated IgG antibody was used (IRDye 680 Goat anti-mouse, LICOR biosciences) and the signal was quantified using Odyssey CLx and Image studio software (LI-COR biosciences).
1 μl sample of S1 and P3 isolated from 24 weeks old rTg4510 and non-transgenic littermate (non-tg) mice or from four pooled Alzheimer’s disease (AD) and healthy control (HC) brains was spotted on nitrocellulose membranes. […] Bound antibodies were detected using an enhanced chemiluminescence system (ECL PLUS kit; Perkin Elmer).

B1: C5.2: novel mouse monoclonal antibody that targets the pS396 tau epitope region (antibody, V domains shown)
VH: QVQLQQSDAELVKPGASVKISCKASGYTFTDRTIHWVKQRPEQGLEWIGYIYPGDDSTKYNDMFKAKATLTADKSSNTAYMQLNSLTSDDSAVYFCARRGTMDYWGQGTSVTVSS
VL: DVQMIQSPSSLSASLGDIVTMTCQASQDTSINLNWFQQKPGKAPKLLIYGASNLEDGVPSRFSGSRYGTDFTLTISSLEDEDMATYFCLQHTYLPFTFGSGTKLEIK
**Q.** With B1 as the molecule, how does the Kd [1] read?
**A.** 15.4 nM

**Q.** What about the Phosphorylation state-specificity ([2]; Discussion, ELISA and fluorescence polarization) of the same molecule?
**A.** phosphorylation state-specific with nanomolar affinity

**Q.** And the Phospho-specificity ([2]; both experiments (ELISA and fluorescence polarization))?
**A.** phospho-specificity for pS396

**Q.** And the Kd ([2]; restated in Discussion, fluorescence polarization, Fab C5.2)?
**A.** 14.9 nM

**Q.** What about the “Binding to insoluble tau fraction (P3)” value ([3]; C5.2 1 µg/mL overnight 4 °C, sarkosyl-insoluble P3, pool of 4 AD donors) of the same molecule?
**A.** binds predominantly to an insoluble tau fraction (P3)

**Q.** And the “Reactivity to soluble tau fraction (S1)” value ([3]; C5.2 1 µg/mL overnight 4 °C, soluble S1, pool of 4 AD donors)?
**A.** also has reactivity to a soluble tau fraction (S1)

**Q.** What about the “Specificity for pathological tau protein” value ([3]; overall statement from blots and immunohistochemistry (Fig. 1), AD and rTg4510 vs controls) of the same molecule?
**A.** specific for pathological tau protein

**Q.** And the “Bands recognized in S1 and P3” value ([3]; western blot, C5.2 1 µg/mL, pool of 4 AD donors)?
**A.** recognizes similar bands in both fractions
